In patent publication EP4578875A1 (Ying Mai de Medical Technology (Guangdong) Co., Ltd., dated 2025):

Molecular target: T1, recombinant human CD3 Epsilon protein (KACTUS) (human, UniProt P07766 23-126)
T1 construct: Bought protein
Assay: ELISA, plate coated with 1 ug/ml recombinant human CD3 epsilon

T1 sequence (P07766 23-126): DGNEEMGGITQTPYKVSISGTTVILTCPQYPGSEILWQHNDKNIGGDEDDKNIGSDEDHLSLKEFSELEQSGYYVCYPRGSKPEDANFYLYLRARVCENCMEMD

B1: anti-Her2/anti-CD3 bispecific antibody comprising the anti-CD3 antibody mutant (mutation site VH-Y61C) (bispecific antibody)
VH: EVQLVESGGGLVQPGGSLRLSCAASGFTFSTYAMNWVRQAPGKGLEWVGRIRSKYNNYATCYADSVKDRFTISRDDSKNSLYLQMNSLKTEDTAVYYCARHGNFGNSYVSWFAYWGQGTLVTVSS
VL: QTVVTQEPSLTVSPGGTVTLTCRSSTGAVTTSNYANWVQQKPGQAPRGLIGGTNKRAPGVPARFSGSLLGDKAALTLLGAQPEDEAEYFCALWYSNLWVFGGGTKLTVL
scFv: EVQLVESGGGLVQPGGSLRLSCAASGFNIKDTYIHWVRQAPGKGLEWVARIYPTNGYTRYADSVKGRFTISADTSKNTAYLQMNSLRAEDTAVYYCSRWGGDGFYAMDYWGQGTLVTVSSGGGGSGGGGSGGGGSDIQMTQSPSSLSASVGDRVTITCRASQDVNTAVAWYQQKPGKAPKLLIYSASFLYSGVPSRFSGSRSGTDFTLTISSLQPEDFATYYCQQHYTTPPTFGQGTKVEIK
notes: also called CD3-Her2 Mutation; CD3-HER2 Mutation
  binding result: binds
